Results taken from PMC9218434.

Target: nucleosome core particle (NCP) of human histones H2A, H2B, H3.1 and H4 with the 145 base-pair Widom 601 DNA, P04908;P06899;P68431;P62805
Assay: electrophoretic mobility shift assay
Conditions: non-denaturing 4% polyacrylamide gel, SYBR Gold staining, n = 3, read off a plot

| Substance | response (0.4 µM p300(BRPHΔAILZ), parent: est. 48) [%] | response (0.8 µM p300(BRPHΔAILZ), parent: est. 71) [%] | response (1.2 µM p300(BRPHΔAILZ), parent: est. 82) [%] | response (0.4 µM p300(BRPHΔAILZ), parent: est. 41) [%] | response (0.8 µM p300(BRPHΔAILZ), parent: est. 62) [%] | response (1.2 µM p300(BRPHΔAILZ), parent: est. 75) [%] |
| --- | --- | --- | --- | --- | --- | --- |
| p300(BRPH_(ΔAIL)Z), catalytic core of human p300 (aa 1035-1720, Y1467F, autoinhibition loop replaced by a linker) (from UniProt Q09472) K1456A; K1459A; K1461A; R1462A | 2.5 | 6 | 8.5 | – | – | – |
| p300(BRPH_(ΔAIL)Z), catalytic core of human p300 (aa 1035-1720, Y1467F, autoinhibition loop replaced by a linker) (from UniProt Q09472) R1137A | – | – | – | 3.3 | 8 | 13 |
